# Measured values from article PMC11940775, “A Bifunctional Phosphoglucomutase/Phosphomannomutase from Thermococcus kodakarensis: Biophysical Analysis and Cryo-EM Structure” (Biomolecules, 2025).
# B1: Phosphoglucomutase/phosphomannomutase from Thermococcus kodakarensis (PGMTk) (enzyme)
# chain: MGKLFGTFGVRGIANEEITPEFALKIGMAFGTLLKREGRERPLVVVGRDTRVSGEMLKDALISGLLSTGCDVIDVGIAPTPAIQWATNHFNADGGAVITASHNPPEYNGIKLLEPNGMGLKKEREAIVEELFFSEDFHRAKWNEIGELRKEDIIKPYIEAIKNRVDVEAIKKRRPFVVVDTSNGAGSLTLPYLLRELGCKVVSVNAHPDGHFPARNPEPNEENLKGFMEIVKALGADFGVAQDGDADRAVFIDENGRFIQGDKTFALVADAVLRENGGGLLVTTIATSNLLDDIAKRNGAKVMRTKVGDLIVARALLENNGTIGGEENGGVIFPDFVLGRDGAMTTAKIVEIFAKSGKKFSELIDELPKYYQFKTKRHVEGDRKAIVAKVAELAEKKGYKIDTTDGTKIIFDDGWVLVRASGTEPIIRIFSEAKSEEKAREYLELGIKLLEEALKG
# notes: Phosphoglucomutase/phosphomannomutase PGMTk, product of gene Tk1108 of Thermococcus kodakarensis, UniProt Q68BJ6; His6 and a TEV protease site were put upstream of the gene; also called Tk1108; TK1108; source: E. coli Rosetta 2(DE3)pLysS, purified (heat treatment at 85 °C, Ni-NTA, Superdex 200 gel filtration)
# Target: the molecule itself
# Assay: SEC; HiLoad 16/60 Superdex 200 pg, 50 mM HEPES pH 7.0 + 200 mM NaCl, against standard protein markers; self-association
protein,measurement,value
B1,stoichiometry N,4
